Values of other authors in publication PMC9781680.

Molecular target: GLP1 peptide (Homo sapiens) (UniProt P01275)
UniProt P01275, sequence (P01275 98-127): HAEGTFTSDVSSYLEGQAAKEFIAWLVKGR

GLP1R (from UniProt P43220)
Kd: 500 pM
